# Patent publication US20090036380A1, “Composition And Method For Brain Tumor Therapy” (Yeda Research and Development Co., Ltd., priority 2006, published 2009)
# Key:
# PC12 cells [1] = assay: Effect of pathway proteins and inhibitors on Karet-induced cell death in PC12 cells; format: cell-based, rat; settings: co-electroporated with Karet into PC12, 12 hours
# [2] = target: 27 amino acid residue juxtamembrane region of TrkA (Homo sapiens, UniProt P04629); assay: In-vitro affinity co-precipitation with biotinylated TrkA juxtamembrane peptide; format: binding; settings: streptavidin beads, recombinant protein, versus two control peptides
# Source text: FIG. 8a is a co-immunoprecipitation analysis depicting interaction of Karet PTB domain with a juxtamembrane region of TrkA. Biotinylated synthetic peptide corresponding to the TrkA sequence in the juxtamembrane and control peptide were immobilized on streptavidin beads and then used to precipitate recombinant Karet protein. Precipitates were washed, eluted and bound Karet was visualized by Western blot with anti-His antibody.
# FIG. 8b is an in-vitro affinity co-precipitation Western blot depicting that the isolated N-terminal PTB domain of Karet specifically interacts with a […] residue juxtamembrane region of TrkA having the sequence Biotinylated synthetic peptides corresponding to a 27 amino acid residue juxtamembrane region of TrkA having the sequence […] (SEQ ID NO: 10), and two control peptides were immobilized on streptavidin beads, and then used to precipitate recombinant PTB domain-containing Karet(1-228) truncation mutant. Precipitates were washed, eluted and bound Karet(1-228) was visualized by Western blot with Karet antibody.
# TrkA = assay: Co-immunoprecipitation of HA-Karet constructs with TrkA; format: binding; settings: co-transfected Hek or NNR5 cells, anti-HA IP
# Description: FIG. 3c is a co-immunoprecipitation assay depicting co-immunoprecipitation of HA-Karet with TrkA in COS cells. Karet tagged with the HA epitope was immunoprecipitated with anti-HA antibody and the blot was incubated with anti-TrkA (RTA). In control experiments the HA-Karet was substituted with vector.
# FIG. 3d is a co-immunoprecipitation assay depicting interaction of Karet and TrkA in NNR5 cells transfected with TrkA.
# FIG. 3e is a co-immunoprecipitation assay depicting co-immunoprecipitation of HA-Karet with TricA in co-transfected NNR5 cells immunoprecipitated with anti-HA (Roche) and Western blot with the anti-TrkA antibody C14 (Santa Cruz).
# FIGS. 4a-c are co-immunoprecipitation assay results depicting the influence of NGF treatment on TrkA-Karet interaction. FIG. 4a depicts that TrkA-Karet interaction occurred prior to NGF treatment and was enhanced after ligand stimulation for 10 minutes (10 m) or 2 hours (2 h). HA-Karet was electroporated into cell line PC12, and the cells were treated with 50 ng/ml NGF for the indicated time periods in order to activate p75 and TrkA. Karet tagged with the HA epitope was immunoprecipitated with anti-HA antibody, the precipitated proteins were separated electrophoretically, and gel blots were incubated with anti-TrkA antibody (RTA). […]
# PC12 cells [3] = assay: Viability / death of PC12 cells after transfection with Karet constructs (Live/dead kit, FACS, cell counting, Hoechst); format: cell-based, rat; settings: PC12-necdin stable cells electroporated with Karet
# Description: FIG. 5a is a bar-graph of FACS data depicting 50 percent death of PC12 cells overexpressing Karet. Shown is a FACS analysis of PC12 viability 15 hours after transfection with Ha-Karet or control vector using Live/dead kit (Molecular probes), T-test=0.003.
# FIG. 5b is a series of fluorescence photomicrographs depicting death of PC12 cells caused by Karet overexpression. Shown is a live/dead kit analysis of PC12 cells overexpressing Ha-Karet (left panels) versus control vector-transfected cells (right panels). Live cell are stained in green, dead cells are stained in red. Upper panels each show red fluorescence only (left picture) and green fluorescence only (right picture) pairs, and lower panels each show combined red and green fluorescence (left picture) and light microscopy images (right picture) pairs. […]
# FIG. 5e is a histogram depicting that Karet expression induces cell death of TrkA expressing cells, which is increased by NGF treatment and is decreased by necdin. […] Cells were counted and result presented as percent of control.
# PC12 cells were transfected with Ha Karet, PTB, non PTB and their combinations. Cells were analyzed by FACS 18 hours after transfection using the dead/live kit. […]
# The lower panel is a histogram depicting that Karet-mediated cell death correlates well with expression levels of the Karet protein. […] Cells were counted and the results were determined as percent of control. […]
# 27 amino acid residue juxtamembrane region of TrkA, sequence (P04629 464-490 limits assumed): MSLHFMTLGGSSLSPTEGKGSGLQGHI
molecule,measurement,setting,value
"JIP1: a Jnk scaffold and inhibitor (protein, UniProt Q9UQF2 1-711, looked up) C-Jun-amino-terminal …: MAERESGGLGGGAASPPAASPFLGLHIASPPNFRLTHDISLEEFEDEDLSEITDECGISLQCKDTLSLRPPRAGLLSAGGGGAGSRLQAEMLQMDLIDATGDTPGAEDDEEDDDEERAARRPGAGPPKAESGQEPASRGQGQSQGQSQGPGSGDTYRPKRPTTLNLFPQVPRSQDTLNNNSLGKKHSWQDRVSRSSSPLKTGEQTPPHEHICLSDELPPQSGPAPTTDRGTSTDSPCRRSTATQMAPPGGPPAAPPGGRGHSHRDRIHYQADVRLEATEEIYLTPVQRPPDAAEPTSAFLPPTESRMSVSSDPDPAAYPSTAGRPHPSISEEEEGFDCLSSPERAEPPGGGWRGSLGEPPPPPRASLSSDTSALSYDSVKYTLVVDEHAQLELVSLRPCFGDYSDESDSATVYDNCASVSSPYESAIGEEYEEAPRPQPPACLSEDSTPDEPDVHFSKKFLNVFMSGRSRSSSAESFGLFSCIINGEEQEQTHRAIFRFVPRHEDELELEVDDPLLVELQAEDYWYEAYNMRTGARGVFPAYYAIEVTKEPEHMAALAKNSDWVDQFRVKFLGSVQVPYHKGNDVLCAAMQKIATTRRLTVHFNPPSSCVLEISVRGVKIGVKADDSQEAKGNKCSHFFQLKNISFCGYHPKNNKYFGFITKHPADHRFACHVFVSEDSTKALAESVGRAFQQFYKQFVEYTCPTEDIYLE",effect on cell death induction by Karet,PC12 cells [1],did not affect cell death induction
"Karet(1-228): N-terminal, PTB-domain-containing truncation mutant of mouse Karet, amino acid residues 1-228 (SEQ ID NO: 7) (protein, listed as Mus musculus, HA tag; N-terminal PTB-domain-containing, truncation mutant of the mouse Karet) MEEEGKKGKKPGIVSPFKRVFLKGEKSRDKKAHEKVTERRPLHTVVLALPERVEPDRLLSDYIEKEVKYLGQLTSIPGYLNPSSRTEILHFIDKAKRSHQLPGHLTQEHDAVLSLSAYNVKLAWRDGEDIILRVPIHDIAAVSYVRDDAAHLVVLKTAQDPGISPSQSLCAESSRGLSAGSLSESAVGPVEACCLVIMATESKVAAEELCSLLSQVFQIVYTESTIDF",precipitation by immobilized TrkA peptide (SEQ ID NO: 10),[2],precipitated by the TrkA peptide
same,co-immunoprecipitation / interaction with TrkA,TrkA,interacts with TrkA
same,co-immunoprecipitation / interaction with TrkA,TrkA; listed as PTB domain alone,co-immunoprecipitated
"p35: a baculovirus caspase-8 and caspase-10 inhibitor (protein, UniProt P08160 1-299, looked up) Early 35 kDa protein: MCVIFPVEIDVSQTIIRDCQVDKQTRELVYINKIMNTQLTKPVLMMFNISGPIRSVTRKNNNLRDRIKSKVDEQFDQLERDYSDQMDGFHDSIKYFKDEHYSVSCQNGSVLKSKFAKILKSHDYTDKKSIEAYEKYCLPKLVDERNDYYVAVCVLKPGFENGSNQVLSFEYNPIGNKVIVPFAHEINDTGLYEYDVVAYVDSVQFDGEQFEEFVQSLILPSSFKNSEKVLYYNEASKNKSMIYKALEFTTESSWGKSEKYNWKIFCNGFIYDKKSKVLYVKLHNVTSALNKNVILNTIK",effect on cell death induction by Karet,PC12 cells [1],did not affect cell death induction
"necdin: MAGE protein, interactor of the intracellular domain of p75 (protein) MSEQSKDLSDPNFAAEVPDCEMQDSDAVPVGIPPPASLAANLAGPPCAPEGPMAAQQASPPPEERIEDVDPKILQQAAEEGRAHQPQSPARPIPAPPAPAQLVQKAHELMWYVLVKDQKRMVLWFPDMVKEVMGSYKKWCRSILRRTSVILARVFGLHLRLTNLHTMEFALVKALSPEELDRVALNNRMPMTGLLLMILSLIYVKGRGAREGAVWNVLRILGLRPWKKHSTFGDVRKIITEEFVQQNYLKYQRVPHIEPPEYEFFWGSRANREITKMQIMEFLARVFKKDPQAWPSRYREALEQARALREANLAAQAPRSSVSED",effect on the apoptotic effects of Karet,PC12 cells [3],attenuated somewhat the apoptotic effects of Karet
